Results published in the nanobody polyreactivity screen of Harvey et al. (2022).

Assay: yeast display, Sf9 membrane polyspecificity reagent, FACS + sequencing; frameworks hold sequencing errors
How it was run: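 Sorting gates, low and high (top ~1%), were placed on anti-HA fluorescence to track expression and on streptavidin fluorescence to track reagent binding. A clone's polyreactivity label is taken from the gate it came out of. The reagent was 10% biotinylated, detergent-solubilized Sf9 membrane, applied for 1 hour at 4 °C to galactose-induced yeast display cells.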

## QVQLVESGGGLVQAGGSLRLSCAASGFISDVYAMGWSRQAPGKEREWVAVITWRGSTYYADSVKGRFTISRDNAKYTVYLQMNSLKPEDTAVYYCAAESQGDWAFDYWGQGTQVTVSS
  polyreactivity (PSR sort gate): low polyreactivity

## QDQLVESGGGLVQAGGSLRLICAASGRTFITYSMGWYRQAPGKERELVAAISWNGGTTYYADSVKGRFTISRDNAKNTVYIQMNSLKPEVTAVYYCAGYRWYSAARMGYWGQGTQVTVSS
  polyreactivity (PSR sort gate): high polyreactivity

## QVQLEESGGGLVQAGGSLRLSCAASGSIFFGNDMGWYSQAPGKERELVAGISNGGRTNYADSVKGRFTISRDNAKNHVYLLMHSLKPEDTAVYYCAKHPVYIYWSRVLVGYSSWGQGTQGTVSS
  polyreactivity (PSR sort gate): low polyreactivity

## QVQLVESGGGLVQAGGSLRLTCAASGFIFGANTRGWYRQAPGKERELVATISWSGGSTYYADSVKGRFTISRDNAKMTVYLQMNSLKPEVTAVYYCAAPGVTYGFRSVYWGQGTQVTVSS
  polyreactivity (PSR sort gate): low polyreactivity

## QVQLVESGGGLVQAGGSLRLSCAASGRIYRYAIGWYRQAPGKERELVASISYSGGSTYYADSVNGRFTISRDNAKNTVYLQMNSLKPEDTAVYYCAARTRHVHYGDWGQGTQVTVSS
  polyreactivity (PSR sort gate): high polyreactivity

## QVQLVESGGGLVQAGGSLRLSCAASGRTFVIYDMGWYRQAPGKERELVAGITRSGGSTYADSVKGRFTISRDNAKNTVYLQMNSLKPEDTAVYYCARRKLYHKSPYDYWGQGTQVTVSS
  polyreactivity (PSR sort gate): low polyreactivity

## QVQLVESGGGLVQAGGSLRLSCAASGSTFSAYAMGWYRQAPGKERELVAAISRSGTRTYYADSVKGRFTISRDNAKNNVYLQMNSLKPEDTAVYYCARYAGRLSYRYEYWGQGTQVTVSS
  polyreactivity (PSR sort gate): high polyreactivity

## QVQLVESGGGLVQAGGRLRLSCASSGITFTFNAMGRYTQAPGKEMELVAAITWSGGSTFYADSVKGRFTISRDNAKNSVYLQMNSLIPEDTAVYYCARDTELYVRWLDYWGQGTQVTVSS
  polyreactivity (PSR sort gate): low polyreactivity

## QVQLEESGGGLVQAGGSLRLSCAASGSTFVVYAMGWYRQAPGKERELVAAISGRGGRTYYADSVKGRFTISRDNAKNTVYLQMISLKPEDTAVYYCSTRYNNLYTIRVGEYDSWGQGTQVTVSS
  polyreactivity (PSR sort gate): high polyreactivity

## QVQLVESGGGLVQAGGSLRLSCAASGFTFKRYDMGWYRQAPGKERELVAAISWNGGSTYYADSVKGRFTISRDNAKNTVYLQMNSLKPEDTAVYYCAARFAYPPKRYYWGQGTQVTVSS
  polyreactivity (PSR sort gate): high polyreactivity

## QVQLVESGGGLVQAGGSLCLSCAASGRTFIRNAMGWYRPAPGKERELVAAINSGGITNYADSVKGRFTISRDNAKNTVYLQMNSLKPEDTALYYCNARQVLYGLYLRAYPYEYWGQGTQVTVSS
  polyreactivity (PSR sort gate): low polyreactivity

## QVQLVESGGGLVQAGGSLRLSSAASGSNFPPNAMGWYRQAPGKEREFVASITSSGGITNYADSVKGRFTISRDNAKNTVYLQMNSLKPEDTAVYYCAAKYYGGTRFRPYGYWGQGTQVTVSS
  polyreactivity (PSR sort gate): high polyreactivity

## QVQLVESGGCLVQAGGSLRLSCAASGRIFVYYAMGWYRQAPGKERELVAGISLSGGSTYYADSVKGRFTISRDNAKNTVYLQMYSLKPEDTAVYDSAIEVNAGYYVWYDYWGQGTQVTVSS
  polyreactivity (PSR sort gate): low polyreactivity

## QVQLVESGGGLVQAGGSLRLSCAASGSSFTGNAMGWYRQAPGKERELVASINGSSGSTYYADSVKGRFTISRDNAKNTVYLEMNSLKPEDTAVYYCNADTYYVEYTAFDYWGQGTQVTVSS
  polyreactivity (PSR sort gate): low polyreactivity

## QVQLVESGGGLVQAGGSLRLSCAASGRIIYKYAMGWYRQAPGKERELVAAISYSGGSTYYADSVKGRFTISRDNAKNTVYLQMKSLKPEDTAVYYCNAKPPYGVRSWGDYWGQGTQVNVSS
  polyreactivity (PSR sort gate): low polyreactivity

## QVQLVESGGGLVQAGGSLRLSCDASGRTFRYYAMGWSRQAPGKERELVAAISASGGSTFYADSVKGRFTISRDNAKNSVYLQMKSLKPEDTAVYYCAAYHYCVFPYKQYDYWGQGTQVTVSS
  polyreactivity (PSR sort gate): high polyreactivity

## QVQLVESGGGLVQAGGRLRLSCAASGFTIRWYTMGWYRQAPGKERELVAAISRGGSTNYADSVKGRFTISRDNAKNTVYLQMNSLKPEDTAVYYCAATVYAFTYPYDYWGQGTQVTVSS
  polyreactivity (PSR sort gate): high polyreactivity

## QVQLVESGGGLVQAGGSLRLSCAASGRTFQVYTMGWYRQAPGKERELVAAISRSGGSTYYADSVKGRFTISRDNAKNTVYLQMNSLKPEDTAVYYCAAVPGWLTSRYYYWGQGTQVTVSS
  polyreactivity (PSR sort gate): high polyreactivity

## QLQLVESGGGLVQAGARLRLSCAASGSIFRFNPMGWYIPAPGKERELVAAITSSGDSTYYADSVKGRFTISRDNAKYTVYLQMNCLKPEDTAVSDCAAVRNRFIGWTVRYNWARIYNYWGQGTQVTVSS
  polyreactivity (PSR sort gate): high polyreactivity

## QVQLVESGGGLVQAGGSLRLSCAASGFIFTRYAMGWYRQAPGKERELVAAIRWRGSSTYYADSVKGRFTISRDNAKNTVYLQMNSLKPEDTAVYYCAAQPSRSTYLAPSRDHWGQGTQVTVSS
  polyreactivity (PSR sort gate): low polyreactivity

## QVQLVESGGGLVQAGGSLRLSCAASGITFRTNAMGWYRQAPGKERDLVAAIRTGYSTYYADSVKGRFTISRDNAKNPVYLQMNSLKPEDTAVYYCNAVRYSPVFRRKYDYWGQGTQVTVSS
  polyreactivity (PSR sort gate): high polyreactivity

## QVQLVESGGGLVQAGGSLRLSCAASGRTFFFNAMGWYRQAPGKERELVARISSSGRTNYADSVKGRFTISRDNAKNTVYLQMNSLKPEDTAVYYCAAGRYGLYKSDRSPEYGYWGQGTQVTVSS
  polyreactivity (PSR sort gate): high polyreactivity

## QVQLVETRGGLVQAGGRLRLSCAASGGIFPVNAMGWYRQAPGKERELVAAISWSVGRTYYADSVKGRFTISRDNAKNTVYLQMISLKREDTAVYYCAAEWFGVYRRYKYDYCGQGTQVTVSS
  polyreactivity (PSR sort gate): low polyreactivity

## QVQLVESGGGLVQAGGSLRLSCAASGSTFHPNAMGWYRQAPGKERELVAISSGDDTYYADSVKGRFTISRDIAKNTVYLQMKSLKPEDTAVYYCAAEYSFIYYWGQGTQVTVSS
  polyreactivity (PSR sort gate): low polyreactivity

## QVQLVESGGGLVQAGGSLRLSCAASGSTLWYNARGWYRDAPGKERELVAAITTSTDSTYYADSVKGRFTISRYNAKNTVYLQMNSLKPEDTAVYYCAAVLHLNGGGKAYDYWGLGTQVTVSS
  polyreactivity (PSR sort gate): low polyreactivity

## QVQLVESGGGLVQAGGSLRLSCAASGITFYRYTMGWYRQAPGKERELVAAITWSGGSTYYADSVKGRFTISRDNAKNTVYLQMNSLKPEDTAVYYCAVYLPYSQRYVHYYYWGQGTQVTVSS
  polyreactivity (PSR sort gate): high polyreactivity

## QVQLVESGGGLVQAGGSLRLSCAASGRTFSTYAMGWYRQAPGKERELVAAITRRGGSTYYADSVKGRFTISRDNAKNTVYLQMNSLKPEDTAVYYCARENPGDSYYDYWGQGTQVTVSS
  polyreactivity (PSR sort gate): low polyreactivity

## QVQLQESGGGMVQAGGSLRLSCAASGSIFADVQMGWYRQAPGKVRELVASINFRGTTTYYADSVKGRFTISRDNAKNTVYLQMSSLKPEDTEVYYCAVGRSEGGDFAYWGQGTHVTVSS
  polyreactivity (PSR sort gate): low polyreactivity

## QVKLVESGGGLVQAGGSLRLSCAASGRIFWSNAMVWYRQAPGKERELVAAISRRGGRTYYADSVKGRFTISRDNAKNTVYLQMNSLKPEDTAVYYCAADGTADYDYWGQGTQVTVSS
  polyreactivity (PSR sort gate): high polyreactivity

## QVQLVESGGGLVQAGGSLRLSSAASGSIFELNAMGWYRQAPGKERELVASISFRGTSTYYADSVKGRFTISRDYAKNTVYLKMNSLKPDDNAVYYCAADTTFPFSYWGQGTQVTVSS
  polyreactivity (PSR sort gate): low polyreactivity

## QVQLVESGGGLVQAGGSLRLSCAASGRTFERNAMGWYRQAPGKEREFVAAITEIGGSTYYADSVKGRFTISRDNAKNTVYLQMNSLKPEDTAVYYCAKDGTYSPYDYWGQGTQVTVSS
  polyreactivity (PSR sort gate): low polyreactivity

## QVQLVESRGGLVQAGGSLRLSCAASGRTIINYAMGCYRQAPRKERELVAAITTGGRTNYADSVKGRFTISRDNAQNTVYLQMNSMKPEDTAVYYCNAVRYYRYYYWGQGTQVTVSS
  polyreactivity (PSR sort gate): low polyreactivity

## QVQLVESGGGLVQAGGSLRLSCAASGRIFEGYAMGWYRQAPGKEELVAAITSDASTYYADSVKGRFTISRDNAKNTVYLQMNSLNPEDTAVYYCNAYTRGLEYDYWGQGTQVTVSS
  polyreactivity (PSR sort gate): high polyreactivity

## QFQLVESGGGLVQAGGSHRLSCAASGRIFSYYAMGWYRQAPGNERELVATITSGGNTNYADSVKGRFTISLDNAKNTVYLQMNSLKPEDTAVYYCKAAERQWYDAYDYWGQGTQVTVSS
  polyreactivity (PSR sort gate): low polyreactivity

## QVQLVESGGGLVQAGGSLRLSCAASGRTFKKYAMGWYRPAPRKERELVAAITGSGGSTYYADSVKGRFTISRDNAKNTVYLQMNSLKPEDTAVYYCAAYAYGVWHSQDGGNYWGQGTQVTVSS
  polyreactivity (PSR sort gate): low polyreactivity

## QVQLVESAGGLVQAGGSLRLSCAASGICAVYARGWYRQAPGKERELVAAITLSGGSTSYADSVKGRFTISRDNAKNTVYLQMNSLNPAATEVYYCAVLIRYPYYYWGQGTQVTVSS
  polyreactivity (PSR sort gate): low polyreactivity

## QVQLVESGGGLVQAGGSLRLSCAASGRIFYSYAMGWYRQAPGKEREFVAAISRSGARTYYADSVKGRFTISRDNAKNTVYLQMNSLKPEDTAVYYCAADDFSTVEYDYWGQGTQVTVSS
  polyreactivity (PSR sort gate): low polyreactivity

## QVQLVESGGGLVQAGGSLRLSCAASGYTFTQNAMGWYRQAPGQERELVASLTSGGSTDYADSVKGRFTISRDNAKNTVYLQMNSVKPEDTAVYYCAAGTATDVASIGATKDYDYWGQVTQVTVSS
  polyreactivity (PSR sort gate): low polyreactivity

## QVQLVESGGGLVPAGGSLRLSCAASGSIFYHNAMGWYRQAPGKERELVAAISYRTGRTYYADSVKGRFTISRDNAKNTVYLQMNSLKPEDTAVYYCAAPYSWGQATQVTVSS
  polyreactivity (PSR sort gate): high polyreactivity

## QVQLVESGGGLVQAGGSLRLSCAASGITFGSNAMGWYRQAPGKERELVAAINSGGTTTYADSVKGRFTISRDNAKNTVYLQMNSLKPEDTAVYYCAVSGGASYQFVGSPDTEHDYWGQGTQVTVSS
  polyreactivity (PSR sort gate): low polyreactivity

## QDQLVESGGGLDQAGCTLRLSCAASVGTFRYYAMGWYRQAPGKERELVASISSGGSTNYADSVKGRFTISRDNAKNTVYLQMNSLKPEDTAVYYCNADPRRPVTSYDYWGQGTQVTVSS
  polyreactivity (PSR sort gate): low polyreactivity

## QVQLVESGGGLVQAGGSLRLSCAASGYIFIGYAMGWYRQAPGTERELVATITSGGSTNYADSVKGRFTISRDNAKNTVYLQMNSLNPEETAVYNCAAGRGRYCYSWRYLYAIFDYWGQGTQVTVSS
  polyreactivity (PSR sort gate): low polyreactivity

## QVQLVESGGGLVQAGGSLRLSCAASGIIFKYYAMGWYRQAPGKERELVAAISRSSGSTYYADSVKGRFTISRDNAKNTVYLQMNSLKPEDTAVYYCAASGWPQKYDYWGQGTQVTVSS
  polyreactivity (PSR sort gate): high polyreactivity
